Tested on: MS2 coat protein
Test: apparent KD of MS2 coat protein; designed switch direction (-1 OFF switch, 1 ON switch): -1; higher = weaker reporter binding
Procedure, shortened: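 Transcription of designed RNA switches on Illumina chips was done by stalled E. coli RNA polymerase. SNAP-549-labelled MS2 coat protein was then titrated in doubling steps from 0.7 or 1.5 nM to 3 µM, with steps of 0.8–1.5 h at the lowest and 10–20 min at the highest concentration. The per-design median over clusters of curve-fitted normalised fluorescence is reported as apparent KD.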

[1] = input ligand: microRNA oligo, concentration not stated
[2] = Eterna round: R95, input ligand: microRNA oligo, concentration not stated
[3] = Eterna round: R95, input ligand: FMN 200 uM
[4] = Eterna round: R95, input ligand: none

Sequence	apparent KD of MS2 coat protein (input ligand: FMN 200 uM) [nM]	apparent KD of MS2 coat protein [1] [nM]	apparent KD of MS2 coat protein (input ligand: none) [nM]	apparent KD of MS2 coat protein [2] [nM]	apparent KD of MS2 coat protein [3] [nM]	apparent KD of MS2 coat protein [4] [nM]
GCUCGUGGGCAAGGAUAUCCUACGCUGUUCUGGUUCGUGUCUGUUACAUGAGGAUCACCCAUGUGGGAGAAGGUGCACCAGGGU [Design 50] (Eterna round: R96, puzzle: Exclusion NG 2)	22.8	12.3	18.3			
GAGCUAUGAGGAUAUGCAUAGAUACGGAUUCGUGUAGUACUACAUGAGGAUCACCCAUGUAGAAGGCGUGGCUG [JL-ex2-2.02 mat747 mod] (puzzle: Exclusion 2)				15.4		
UUUGCAAGCUUUAGAUCCCACAUGAGGAUCACCCAUGUUGCUGCCGUGAGGUAGCUUUUAACUAAUGCUCGUCUUAU [JL TOV1 3.45] (Eterna round: R97, puzzle: Sensor, turn-off variant 1)	88.2		163			
CCGCUCCGUGUAGGAUAUUGGCGUGCCCUGCGCCGAGAAGGACAUGAGGAUCACCCAUGUAUGUUAUUAUCACGCGUGGCGCAC [Design 76] (Eterna round: R96, puzzle: Exclusion NG 1)	15.9	12.9	17			
GACUUGUCAGGAUAUCUUACAUUUGCAUCGUAGUUACCGUUGGAGAAGGGACAUGAGGAUCACCCAUGUUUGGC [tap-tap-tappy24] (Eterna round: R97, puzzle: Exclusion 4)	26.6		28.9			
UUAUUUAGUGUGAGGAUAUGCUGGUCGAUAGAUCAGCAGAAGGCACAUGAGGAUCACCCAUGUAAUAUAUUAAA [Mat - Exclusion 4 - JL Mod - D34] (puzzle: Brourd's mod of Exclusion 4)				51.5		
CCGCAAAAGCAGGAUAUCGUAUCGGAAACGAUACGAGAAGGGUUUACAUGAGGAUCACCCAUGUUCCUUAGCGG [Mat - Exclusion 6 - Eli Mod - D101] (puzzle: Exclusion 6)				28.7		
CAUACUCAAGUCAGGAUAUACAGUCGAAUACGGGUGUAGAAGGGACAUGAGGAUCACCCAUGUAGAGAGUAAAG [EX-4 Malc #22] (puzzle: Brourd's mod of Exclusion 4)				33	122	36.1
AGCUCUGCAGGAUAUGCCCGGGAUAACAUGAGGAUCACCCAUGUGACUGAUUGUUAUUCUGCAGAAGGGCAUGGGA [JL-EX5-4.15 ViennaUCT mod] (Eterna round: R97, puzzle: Exclusion 5)	409		637			
CGGUAGUAUGUAGGAUAUCGGUCAGUUUCUGAUCGAGAAGGACAUGAGGAUCACCCAUGUAAAACGACCGGUUUCUGGUUGCCG [JL ENG1 3.55] (Eterna round: R96, puzzle: Exclusion NG 1)	15.4	12	15.6			
GUGACUGAUGUCAGGAUAUCCGGUGCUAAAGUACAGGAGAAGGGACAUGAGGAUCACCCAUGUAACUUAGCCAG [BmEX4 B.7] (Eterna round: R97, puzzle: Brourd's mod of Exclusion 4)	23.2		15.4			
CAAUAGCGAGGAUAUACAUGAGGAUCACCCAUGUGAUCCUUAGGCUGUUGAAGCCUAUGUAGAAGGCGCAAAUU [jl-ex3.4.57 ViennaUCT mod] (Eterna round: R97, puzzle: Exclusion 3)	198		138			
CUUUUGUGAGGAUAUCAGUAGUAAAUAAAUAUAAUUACUACUGAGAAGGCACAUGAGGAUCACCCAUGUUCCUC [salish99_ex3_r3_082] (puzzle: Exclusion 4)				38.2		
UAUCAGCAAGUGAGGAUAUAGAGAACGGUUGUUGGCUAGAAGGCACUUGAGGAUCACCCAAGUCGCAAAGUGGC [Mamausonbe] (Eterna round: R97, puzzle: Brourd's mod of Exclusion 4)	134		29.3			
UGUAACCUGGUAAGGAUAUAGUUGCAAGGAGUCAACUAGAAGGUACAUGAGGAUCACCCAUGUCUACGGAUAUC [Eternabot (L2) Solution 91] (Eterna round: R97, puzzle: Brourd's mod of Exclusion 4)	20.6		17.3			
AGCGUGGAGACAGGAUAUGAGAAUAGAUAGAACUCAGAAGGGUCACAUGAGGAUCACCCAUGUAAAGUCUUGAGGCUGAGUGGU [Prohibition 6 - Jieux - Exclusion NG 1] (Eterna round: R96, puzzle: Exclusion NG 1)	153	36.4	45.2			
UUUCUCUGGGCGUCUUCUUACAUGAGGAUCACCCAUGUUUCAUAGGAUAUGCUAUAGUGUUACAUGCAGAAGGAUGUUUGUUUU [JR_ExcNG3_Sub080] (Eterna round: R96, puzzle: Exclusion NG 3)		189				
CUGCUCCGUGUAGGAUAUGCAUACUCCCAUUAUGCAGAAGGACAUGAGGAUCACCCAUGUAUGUUAUUAUCACGUGUAGCGUAC [Design 15] (Eterna round: R96, puzzle: Exclusion NG 1)	104	21.2	29.9			
CUGGUUGUCGAGGAUAUGCACCGGCUCGCUGACGCAGAAGGCGACACAUGAGGAUCACCCAUGUCGGUUCGCGU [salish99_ex6_r004_438] (Eterna round: R97, puzzle: Exclusion 6)	29		19.1			
GGCUGACAUGUAGGAUAUCUGCACGUGUAGUGCAGAGAAGGACAUGAGGAUCACCCAUGUAUAGCGACUUCGGUCGCAACAGCC [ENG1/2-A3] (Eterna round: R96, puzzle: Exclusion NG 1)		35.9				
CUUAUGUGAGGAUAUCAGUAGUGAUACGAUAGUAUUACUGCUGAGAAGGCACAUGAGGAUCACCCAUGUUCCUC [Exclusion 4 - Mod Omei Ex4 344 mod 4 v.2] (puzzle: Exclusion 4)				91.6		
CAUGUCCAACGAGGAUAUGGGACAGGAAGUGUACCAGAAGGCGUACGGACAUGAGGAUCACCCAUGUCGCGCGGUGCGAUGUGG [MOD Nando EXNG 1.1] (Eterna round: R96, puzzle: Exclusion NG 1)	47	23.8	91.7			
UACAUGAGGAUCACCCAUGUUUUAUCAUGUGUAAUAAUAAUGUAGGAUAUGUAUUAUUUAUUUUAACAGAAGGACAAUAAUAAA [JMF's solution 1] (Eterna round: R96, puzzle: Exclusion NG 3)	279	265	362			
GUCUUCAUGACAUGAGGAUCACCCAUGUGUUAUAUGUUAACUAAGGAUAUAUUUUUAAUGUUGAGAUAGAAGGUAGUUUCGGUC [JR_ExcNG3_Sub091] (Eterna round: R96, puzzle: Exclusion NG 3)	120	95.8	131			
AGUAACUAUCACGAAAGUGAUAGUUACAACAAGUGAUAAACAUGAGGAUCACCCAUGUCCUCAUUUGUUCGUCUUAU [Sensor 3 - 14] (puzzle: Sensor v3, turn-off variant 2)				373	240	225

Reference: the supplement of paper PMC9170038
